Measured values from IntAct's records for PubMed 30126976.
Values belong to the substance of their own block, whether it stands above or below them.

Legend:
ks6a2_human RPS6KA2 [1] = target: ks6a2_human RPS6KA2 (UniProt Q15349)
scrib_human SCRIB [2] = target: scrib_human SCRIB (UniProt Q14160)
ks6a2_human RPS6KA2 [3] = target: ks6a2_human RPS6KA2 (UniProt Q15349); remark: listed apart in the source
scrib_human SCRIB [4] = target: scrib_human SCRIB (UniProt Q14160); remark: listed apart in the source
dlg1_human DLG1 = dlg1_human DLG1 (UniProt Q12959)
dlg1_human DLG1, sequence (Q12959 whole entry, looked up): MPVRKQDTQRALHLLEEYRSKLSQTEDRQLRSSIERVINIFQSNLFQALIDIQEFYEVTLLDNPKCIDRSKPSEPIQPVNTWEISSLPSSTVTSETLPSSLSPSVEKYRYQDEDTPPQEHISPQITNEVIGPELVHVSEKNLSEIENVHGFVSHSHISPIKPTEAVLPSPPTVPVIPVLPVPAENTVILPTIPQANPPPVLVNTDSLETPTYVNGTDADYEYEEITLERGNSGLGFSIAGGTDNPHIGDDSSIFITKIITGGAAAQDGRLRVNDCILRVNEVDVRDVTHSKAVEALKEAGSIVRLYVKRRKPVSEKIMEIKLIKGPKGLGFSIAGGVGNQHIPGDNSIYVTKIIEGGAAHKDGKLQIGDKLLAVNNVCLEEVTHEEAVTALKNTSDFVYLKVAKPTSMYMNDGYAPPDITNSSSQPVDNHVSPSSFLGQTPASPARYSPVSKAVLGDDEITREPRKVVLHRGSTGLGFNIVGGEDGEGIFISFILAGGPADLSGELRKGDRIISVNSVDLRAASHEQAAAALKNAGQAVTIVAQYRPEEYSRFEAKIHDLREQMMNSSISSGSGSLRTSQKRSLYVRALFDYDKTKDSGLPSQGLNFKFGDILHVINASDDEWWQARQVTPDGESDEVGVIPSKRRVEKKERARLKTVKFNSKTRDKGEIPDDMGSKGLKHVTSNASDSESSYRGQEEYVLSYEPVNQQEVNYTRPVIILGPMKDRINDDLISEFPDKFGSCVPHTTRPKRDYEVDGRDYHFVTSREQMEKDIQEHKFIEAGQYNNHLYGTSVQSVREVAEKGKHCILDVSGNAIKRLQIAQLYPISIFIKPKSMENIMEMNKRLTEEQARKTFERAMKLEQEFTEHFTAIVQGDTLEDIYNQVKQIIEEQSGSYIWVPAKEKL

scrib_human SCRIB [5] = target: scrib_human SCRIB (UniProt Q14160); remark: listed apart in the source
crcm_human MCC [6] = target: crcm_human MCC (UniProt P23508)
crcm_human MCC, sequence (P23508 whole entry): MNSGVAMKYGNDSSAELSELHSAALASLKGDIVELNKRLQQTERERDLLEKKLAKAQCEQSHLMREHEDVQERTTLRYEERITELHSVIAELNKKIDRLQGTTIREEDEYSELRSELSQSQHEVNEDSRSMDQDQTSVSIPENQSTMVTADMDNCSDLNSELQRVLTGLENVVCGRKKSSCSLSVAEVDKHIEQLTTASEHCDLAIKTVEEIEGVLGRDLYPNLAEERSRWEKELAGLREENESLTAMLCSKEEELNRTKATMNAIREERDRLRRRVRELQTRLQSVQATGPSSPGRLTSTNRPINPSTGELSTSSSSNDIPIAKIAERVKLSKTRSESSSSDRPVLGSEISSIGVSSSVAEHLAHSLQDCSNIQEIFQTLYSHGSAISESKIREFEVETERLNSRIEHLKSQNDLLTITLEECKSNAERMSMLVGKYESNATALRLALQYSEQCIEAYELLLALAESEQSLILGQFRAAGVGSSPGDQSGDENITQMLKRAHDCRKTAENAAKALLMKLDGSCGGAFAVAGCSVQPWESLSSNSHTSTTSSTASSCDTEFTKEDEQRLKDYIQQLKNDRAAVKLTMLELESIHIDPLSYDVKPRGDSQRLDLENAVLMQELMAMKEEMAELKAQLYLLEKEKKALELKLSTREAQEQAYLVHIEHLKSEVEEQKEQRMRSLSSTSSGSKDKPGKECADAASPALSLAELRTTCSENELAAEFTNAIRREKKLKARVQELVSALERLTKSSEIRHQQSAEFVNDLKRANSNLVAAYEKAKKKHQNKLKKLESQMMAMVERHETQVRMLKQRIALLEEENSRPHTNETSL

crcm_human MCC [7] = target: crcm_human MCC (UniProt P23508); remark: listed apart in the source

scrib_human SCRIB, sequence (Q14160 whole entry): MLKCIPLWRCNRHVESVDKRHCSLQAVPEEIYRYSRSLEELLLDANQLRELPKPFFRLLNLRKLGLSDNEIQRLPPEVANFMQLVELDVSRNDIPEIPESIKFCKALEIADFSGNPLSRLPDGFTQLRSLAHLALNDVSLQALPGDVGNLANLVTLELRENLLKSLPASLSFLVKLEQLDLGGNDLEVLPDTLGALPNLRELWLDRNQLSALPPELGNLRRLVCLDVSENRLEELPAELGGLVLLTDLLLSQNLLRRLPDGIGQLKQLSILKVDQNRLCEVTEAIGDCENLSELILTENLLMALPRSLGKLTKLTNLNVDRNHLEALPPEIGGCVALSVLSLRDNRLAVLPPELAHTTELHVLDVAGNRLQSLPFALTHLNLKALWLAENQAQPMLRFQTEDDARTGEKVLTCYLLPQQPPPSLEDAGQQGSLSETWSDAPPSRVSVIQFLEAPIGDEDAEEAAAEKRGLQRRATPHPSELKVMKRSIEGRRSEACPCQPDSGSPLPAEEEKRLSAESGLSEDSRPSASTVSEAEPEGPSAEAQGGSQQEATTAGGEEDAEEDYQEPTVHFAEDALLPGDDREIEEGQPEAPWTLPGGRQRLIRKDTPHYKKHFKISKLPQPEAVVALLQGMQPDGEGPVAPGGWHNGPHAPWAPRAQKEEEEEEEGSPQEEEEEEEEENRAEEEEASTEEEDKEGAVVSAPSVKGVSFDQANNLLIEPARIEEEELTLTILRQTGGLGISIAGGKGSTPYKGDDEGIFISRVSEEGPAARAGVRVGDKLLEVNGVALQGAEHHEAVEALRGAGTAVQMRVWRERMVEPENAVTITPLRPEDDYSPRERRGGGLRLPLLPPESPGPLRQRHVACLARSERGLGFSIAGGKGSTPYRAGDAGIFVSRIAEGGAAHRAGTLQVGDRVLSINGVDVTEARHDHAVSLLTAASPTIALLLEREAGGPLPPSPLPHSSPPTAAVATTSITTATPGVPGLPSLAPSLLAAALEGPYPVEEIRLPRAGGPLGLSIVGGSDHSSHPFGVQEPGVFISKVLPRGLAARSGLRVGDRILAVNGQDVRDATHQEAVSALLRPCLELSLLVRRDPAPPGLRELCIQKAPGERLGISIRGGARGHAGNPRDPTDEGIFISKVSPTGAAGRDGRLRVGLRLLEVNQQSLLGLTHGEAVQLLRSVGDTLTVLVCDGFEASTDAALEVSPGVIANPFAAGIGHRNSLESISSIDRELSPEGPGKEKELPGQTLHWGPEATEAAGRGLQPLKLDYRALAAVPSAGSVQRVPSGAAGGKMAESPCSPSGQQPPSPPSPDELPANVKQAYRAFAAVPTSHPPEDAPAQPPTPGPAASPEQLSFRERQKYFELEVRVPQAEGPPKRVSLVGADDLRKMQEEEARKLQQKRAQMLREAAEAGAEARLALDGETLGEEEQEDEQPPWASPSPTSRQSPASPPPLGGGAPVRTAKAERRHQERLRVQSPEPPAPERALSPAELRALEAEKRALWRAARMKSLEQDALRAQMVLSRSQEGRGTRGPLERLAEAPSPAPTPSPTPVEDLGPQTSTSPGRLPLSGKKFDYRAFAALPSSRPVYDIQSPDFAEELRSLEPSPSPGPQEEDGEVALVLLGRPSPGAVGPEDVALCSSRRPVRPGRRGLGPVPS
ks6a2_human RPS6KA2, sequence (Q15349 whole entry): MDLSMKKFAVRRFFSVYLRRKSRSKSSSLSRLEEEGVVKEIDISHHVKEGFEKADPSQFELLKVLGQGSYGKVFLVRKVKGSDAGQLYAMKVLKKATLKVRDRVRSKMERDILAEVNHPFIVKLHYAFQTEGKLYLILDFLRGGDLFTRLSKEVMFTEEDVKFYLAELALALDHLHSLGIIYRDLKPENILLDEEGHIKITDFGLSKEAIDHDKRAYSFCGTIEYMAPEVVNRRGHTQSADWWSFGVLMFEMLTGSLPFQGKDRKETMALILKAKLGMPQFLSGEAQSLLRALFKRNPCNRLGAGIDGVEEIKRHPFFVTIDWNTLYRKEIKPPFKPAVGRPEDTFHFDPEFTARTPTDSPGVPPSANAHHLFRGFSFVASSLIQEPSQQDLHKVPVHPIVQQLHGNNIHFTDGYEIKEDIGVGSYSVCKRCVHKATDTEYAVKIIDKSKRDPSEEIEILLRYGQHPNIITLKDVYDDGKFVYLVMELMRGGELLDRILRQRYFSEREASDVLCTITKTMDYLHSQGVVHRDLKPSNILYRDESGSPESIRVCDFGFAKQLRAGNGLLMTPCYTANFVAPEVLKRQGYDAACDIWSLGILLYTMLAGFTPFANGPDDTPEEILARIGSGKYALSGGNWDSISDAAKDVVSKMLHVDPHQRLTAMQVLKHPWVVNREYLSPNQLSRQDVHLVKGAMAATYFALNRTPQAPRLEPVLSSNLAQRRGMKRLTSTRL
Wilms tumor protein 1-interacting protein (Homo sapiens), A6NIX2 S422E, sequence (A6NIX2 whole entry S422E): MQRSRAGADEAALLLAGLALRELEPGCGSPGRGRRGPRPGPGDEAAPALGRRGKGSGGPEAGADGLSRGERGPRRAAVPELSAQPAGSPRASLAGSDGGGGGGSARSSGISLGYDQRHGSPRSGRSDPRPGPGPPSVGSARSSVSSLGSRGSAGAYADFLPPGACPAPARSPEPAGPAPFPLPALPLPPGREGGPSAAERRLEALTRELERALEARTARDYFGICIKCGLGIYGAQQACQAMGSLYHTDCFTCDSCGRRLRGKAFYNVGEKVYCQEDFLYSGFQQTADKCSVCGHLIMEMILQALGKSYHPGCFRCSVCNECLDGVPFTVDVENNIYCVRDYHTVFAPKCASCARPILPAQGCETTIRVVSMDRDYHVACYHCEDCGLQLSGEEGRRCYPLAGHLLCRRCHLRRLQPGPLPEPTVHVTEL

effect of a mutation on the interaction (ks6a2_human RPS6KA2 [1]): decreasing interaction strength
Substance: Protein scribble homolog (Homo sapiens), Q14160 R801A

effect of a mutation on the interaction (scrib_human SCRIB [2]): with no effect
Substance: Wilms tumor protein 1-interacting protein (Homo sapiens), A6NIX2 S422E

effect of a mutation on the interaction (ks6a2_human RPS6KA2 [3]): increasing interaction strength | effect of a mutation on the interaction (ks6a2_human RPS6KA2 [1]): decreasing interaction strength
Substance: Protein scribble homolog (Homo sapiens), Q14160 K746A

effect of a mutation on the interaction (scrib_human SCRIB [4]): disrupting interaction strength
Substance: Asparagine synthetase domain-containing protein 1 (Homo sapiens), Q9NWL6 T641E

effect of a mutation on the interaction (dlg1_human DLG1): decreasing interaction strength | effect of a mutation on the interaction (scrib_human SCRIB [5]): decreasing interaction strength
Substance: Protein TANC1 (Homo sapiens), Q9C0D5 S1855E

effect of a mutation on the interaction (crcm_human MCC [6]): decreasing interaction strength | effect of a mutation on the interaction (crcm_human MCC [7]): with no effect | effect of a mutation on the interaction (ks6a2_human RPS6KA2 [1]): decreasing interaction strength
Substance: Protein scribble homolog (Homo sapiens), Q14160 A743R;R762A

effect of a mutation on the interaction (ks6a2_human RPS6KA2 [1]): increasing interaction strength
Substance: Protein scribble homolog (Homo sapiens), Q14160 A743R

effect of a mutation on the interaction (crcm_human MCC [6]): decreasing interaction strength | effect of a mutation on the interaction (ks6a2_human RPS6KA2 [3]): increasing interaction strength | effect of a mutation on the interaction (ks6a2_human RPS6KA2 [1]): decreasing interaction strength
Substance: Protein scribble homolog (Homo sapiens), Q14160 R762A
